Measurements taken from patent US20080119432, “Inhibition Of Metallo-Beta-Lactamase By Rna” (published 2008).

Key:
[1] = molecular target: T1, metallo-beta-lactamase (beta-lactamase II, 5/B/6) (Bacillus cereus 5/B/6, UniProt P14488 SEQ:2-228); experiment: inhibition; noncompetitive; Ki' (enzyme-substrate-inhibitor complex) 15 nM; cephalosporin C substrate, 50 mM MOPS pH 7.0, 30 C; settings: tags: expressed in E. coli TAP56 from pRE2/bla
T1 sequence: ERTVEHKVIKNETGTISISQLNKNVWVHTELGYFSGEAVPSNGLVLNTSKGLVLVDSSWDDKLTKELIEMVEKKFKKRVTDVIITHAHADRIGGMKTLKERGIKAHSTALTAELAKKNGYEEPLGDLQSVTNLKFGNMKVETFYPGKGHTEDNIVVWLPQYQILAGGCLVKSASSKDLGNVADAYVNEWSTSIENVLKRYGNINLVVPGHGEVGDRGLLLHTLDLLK

[2] = molecular target: T1, metallo-beta-lactamase (beta-lactamase …); experiment: inhibition; 4.3 mM cephalosporin C, 50 mM MOPS pH 7.0, no added Zn; settings: tags: expressed in E. coli TAP56 from pRE2/bla

## UGGCUGCAGGGUCUGGCCCCCCGUUUGGUG (ssRNA) [30-mer RNA]
[1]
  Ki: 2 nM
[2]
  IC50: 11 nM
